From paper PMC10925246 (bioRxiv, 2024)
Read-outs that look alike come from different tables or passages of the source. Ends that are not written are not given here.

B1: PotH outer loop 2 synthetic peptide (peptide)
peptide: Ac-WMGILKNNGVLNNFLLWLGVIDQPLTILHTN-NH2
B2: lacritin peptide N-104 (peptide)
peptide: Ac-AQKLLKKFSLLKPWA
B3: N-104:F112S (peptide, UniProt Q9GZZ8 124-138, looked up)
peptide: AQKLLKKSSLLKPWA
B4: N-104:K107S (peptide, UniProt Q9GZZ8 124-138, looked up)
peptide: AQSLLKKFSLLKPWA
B5: N-104:K110S (peptide, UniProt Q9GZZ8 124-138, looked up)
peptide: AQKLLSKFSLLKPWA
B6: N-104:K111S (peptide, UniProt Q9GZZ8 124-138, looked up)
peptide: AQKLLKSFSLLKPWA
B7: N-104:K116S (peptide, UniProt Q9GZZ8 124-138, looked up)
peptide: AQKLLKKFSLLSPWA
B8: N-104:L108S (peptide, UniProt Q9GZZ8 124-138, looked up)
peptide: AQKSLKKFSLLKPWA
B9: N-104:L109S (peptide, UniProt Q9GZZ8 124-138, looked up)
peptide: AQKLSKKFSLLKPWA
B10: N-104:L114S (peptide, UniProt Q9GZZ8 124-138, looked up)
peptide: AQKLLKKFSSLKPWA
B11: N-104:L115S (peptide, UniProt Q9GZZ8 124-138, looked up)
peptide: AQKLLKKFSLSKPWA
B12: N-104:W118S (peptide, UniProt Q9GZZ8 124-138, looked up)
peptide: AQKLLKKFSLLKPSA
B13: Cys(N)-N-104 immobilized on SulfoLink Coupling resin (peptide)
peptide: AQKLLKKFSLLKPWA
B14: N-104 L108S/L109S/F112S/L114S/L115S/W118S (peptide, UniProt Q9GZZ8 124-138, looked up)
peptide: AQKSSKKSSSSKPSA

Experiments:
[1] = molecular target: B13; experiment: pull-down
[2] = molecular target: thrombin (F2) C-terminal peptide GKY20 (human); experiment: far-Western, overlay or dot blot
[3] = molecular target: T1, recombinant PotH (E. coli) with C-terminal 10-His tag (E. coli, UniProt P31135 1-317); experiment: pull-down
T1 sequence (looked up): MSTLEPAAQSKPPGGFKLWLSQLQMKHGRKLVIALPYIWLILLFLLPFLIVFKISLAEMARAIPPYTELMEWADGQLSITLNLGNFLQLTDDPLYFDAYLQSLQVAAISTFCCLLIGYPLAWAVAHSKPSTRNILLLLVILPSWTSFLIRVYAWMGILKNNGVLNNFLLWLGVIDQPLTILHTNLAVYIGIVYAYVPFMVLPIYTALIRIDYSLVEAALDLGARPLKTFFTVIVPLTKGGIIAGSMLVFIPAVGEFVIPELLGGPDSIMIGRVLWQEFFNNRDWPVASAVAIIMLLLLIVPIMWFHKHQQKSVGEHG

[4] = molecular target: thrombin (F2) C-terminal peptide GKY20 (human); experiment: far-Western, overlay or dot blot; remark: listed apart in the source

Binder | binding result [2] | further results
B1 |  | binding result [1]: binds
B2 | binds | 
B3 | binds | 
B4 | binds | 
B5 | binds | 
B6 | binds | 
B7 | binds | 
B8 | binds | 
B9 | binds | 
B10 | binds | 
B11 | binds | 
B12 | binds | 
B13 |  | binding result [3]: binds
B14 |  | binding result [4]: binds
